Experimental data published in PMC6389896 (Communications Biology, 2019).
“And” between values parts separate entries of the source, which are not always exact repeats. Equal values may be shown once. Values belong to the compound of their own block, whether it stands above or below them.

Columns and labels:
human esRAGE = human esRAGE (Homo sapiens, UniProt Q15109); assay: Plate competition assay of oxytocin-RAGE complex formation by RAGE ligands and RAGE domains; type: binding; conditions: esRAGE preincubated with ligand, added 30 min to wells with immobilised oxytocin, HRP-anti-RAGE, n = 3
Procedure: RAGE ligands were S100B (Sigma-Aldrich, St. Louis, MO, USA)[30], AGE-BSA (glyceraldehyde-derived AGE-BSA)[27],[32],[41], amyloid β 1-42 (Sigma-Aldrich), and high-mobility group box 1 (HMGB1, Sigma-Aldrich)[42].
Supplementary Figure 3. (a–d) Plate competition assays. Preincubation mixtures of esRAGE (1 mg/ml) with indicated concentrations of S100B (a),AGE-BSA (AGE) (b), amyloid b (c),or high-mobility group box 1 (HMGB1) (d) were added into wells for 30 min on which […]
The formation of oxytocin–RAGE complexes was detected with horseradish peroxidase (HRP)-conjugated anti-RAGE antibody (n = 3). All […]
and C2 domains (30 mg/ml) were used with this system (n = 3). The formation of oxytocin– RAGE complexes was detected with horseradish peroxidase (HRP)-conjugated anti-RAGE antibody (n = 3). *P < 0.05. Allgraphs show mean ± SEM.
(1 picture or pasted object on this page, not shown here)

[1] = [13C,15N]oxytocin in CSF after subcutaneous injection, LC-MS/MS; type: in vivo, mouse
Procedure: (§1) High MW proteins in diluted mouse plasma were precipitated with 2% TCA; supernatants obtained after centrifugation were analysed by LC-MS/MS. Mouse CSF samples diluted 1:5 with PBS (25 μl) were analysed directly. […] The eluting 1.0 ml fractions (Fig. 1h) were analysed by LC-MS/MS. The 25 μl samples were separated using a ZORBAX 300SB-C8 column (2.1 × 150 mm, 5 μm; CA, USA) eluted with a linear gradient of 0.1% (v/v) formic acid and acetonitrile (0–30%) at 0.3 ml/min and 50 °C.

[2] = Sodium fluorescein leakage into CSF after BCCAO (BBB integrity); type: in vivo, mouse; conditions: individual animals; for CSF/blood fluorescent: 60 min after injection
Procedure: WT and Ager^−/− male mice (8 to 12-weeks-old and weighing 20–30 g) were used for the experiments. The animals were anaesthetised with 2.0% halothane and maintained with 0.5% halothane through a facemask. Brain ischaemia was induced via bilateral occlusion of the common carotid arteries (BCCAO) for 15 min using microvascular clips as described previously. Laser-Doppler flowmetry was used to measure cerebral cortical microperfusion (3 mm lateral to bregma). […] Rectal temperature was maintained at 36.5–37.5 °C by using a heat lamp and a blanket until the mice were completely alert. The control animals underwent a sham-operation that was identical with the exception of the occlusion. To quantify accumulative BBB leakages, 200 µl of sodium fluorescein (Sigma-Aldrich) at a concentration of 6 mg/ml in PBS was injected via the venous sinus of retro-orbital in the mice. […] Sixty minutes later, the CSF and blood were collected according to the protocol for sampling of CSF and blood from mice[80]. The fluorescence of CSF and serum were measured at 460 nm at an excitation wavelength of 355 nm by using a Fluoroscan Ascent FL luminometer (Labsystems. Wilmington, DE, USA). Results are presented as relative fluorescence units (CSF value/serum value) (%).

[3] = system: monkey brain capillary endothelial cells; assay: In vitro blood-brain barrier (BBB) model (MBT-24H), transport between luminal and abluminal chambers, control or RAGE shRNA knockdown; conditions: 1.0 ng/ml in luminal chamber, 3 h, control vs RAGE knockdown, ELISA, n = 4
Procedure: EC, monkey brain capillary endothelial cells; Peri, rat brain pericytes; Astro, rat astrocytes. […] The endothelial cells used in the upper chamber in a were treated with RAGE shRNA (knockdown, KD) or control (C or CNT) vectors to assess the effects of RAGE knockdown. […] Values are mean ± SEM
For the in vitro BBB model (MBT-24H, PharmaCo-Cell Co., Nagasaki, Japan), rat brain pericytes (1.5 × 10^4 cells/cm^2) and rat astrocytes (1.5 × 10^4 cells/cm^2) were seeded on the bottom of the collagen-coated polyester membranes of Transwell inserts (Corning Life Sciences, MA, USA). After 16 h the cells firmly adherent, monkey brain vascular endothelial cells (1.5 × 10^5 cells/cm^2) were then seeded on the upper side of the inserts in 24-well culture plates. The in vitro BBB models were established within 4 days of seeding the cells according to the manufacturer’s instructions. Trans-endothelial electrical resistance (TEER), which primarily reflects the flux of sodium ions through the cell layers in the culture conditions, was measured with an epithelial-volt-ohm metre and an Endohm-6 chamber electrodes (World Precision Instruments, Sarasota, FL, USA). The TEERs of the coated, cell-free filters were subtracted from the measured TEER values of the models and shown as Ω cm^2. The apparent permeability constants (Papp) between luminal and abluminal chambers were calculated from the distribution ratios. Endothelial expression was silenced using RAGE shRNA and the pSilencer 3.0-H1 vector (Ambion, Austin, TX, USA)[41]. […]

soluble RAGE = target: T1, soluble RAGE (Homo sapiens, UniProt Q15109); assay: Gel permeation, anti-RAGE and esRAGE affinity chromatography of human serum with EIA and LC-MS/MS; type: binding; conditions: 50 ml human serum
T1 construct: from tissue; host or cells: human serum
Procedure: Polypeptides were separated using a Superdex 75 pg HiLoad 26/600 column (GE Healthcare Japan, Tokyo) eluted at 1.0 ml/min with 5 mM ammonium acetate pH 7.8. […] Anti-RAGE monoclonal antibody (1.0 mg) or purified esRAGE (0.5 mg) were coupled to NHS-activated HiTrap (GE Healthcare). Sera samples (50 ml) from healthy consenting adults were applied to the HiTrap-anti-RAGE column equilibrated with 50 mM Tris–HCl (pH 7.4) and 0.15 M NaCl. Alternatively, the low molecular weight (<3000, Amicon Ultracel3K) fraction of human serum (50 ml) was applied to the HiTrap-esRAGE column previously equilibrated with phosphate-buffered saline (PBS). After washing the bound proteins were eluted with 100 mM glycine-HCl buffer (pH 2.5) for HiTrap-anti-RAGE or 10 mM Tris–HCl (pH 7.4) and 2.0 M NaCl for HiTrap-esRAGE and the eluates were analysed by EIA or LC-MS/MS and Western blotting.
as §1
Supplementary Figure 1. […]

[4] = target: human endogenous soluble RAGE (esRAGE), recombinant (human); assay: SPR; human esRAGE amine-coupled to a CM5 chip (~5000 RU), oxytocin flowed over; BIAcore 2000; 10 mM HEPES pH 7.4, 0.15 M NaCl, 3 mM EDTA, 0.005% surfactant P-20; 25 °C, 20 μl/min; apparent KD
[5] = target: oxytocin receptor (high affinity form) (UniProt P30559); conditions: cited from earlier work
oxytocin receptor = oxytocin receptor (UniProt P30559); conditions: cited from earlier work
Sequence of oxytocin receptor (P30559 whole entry): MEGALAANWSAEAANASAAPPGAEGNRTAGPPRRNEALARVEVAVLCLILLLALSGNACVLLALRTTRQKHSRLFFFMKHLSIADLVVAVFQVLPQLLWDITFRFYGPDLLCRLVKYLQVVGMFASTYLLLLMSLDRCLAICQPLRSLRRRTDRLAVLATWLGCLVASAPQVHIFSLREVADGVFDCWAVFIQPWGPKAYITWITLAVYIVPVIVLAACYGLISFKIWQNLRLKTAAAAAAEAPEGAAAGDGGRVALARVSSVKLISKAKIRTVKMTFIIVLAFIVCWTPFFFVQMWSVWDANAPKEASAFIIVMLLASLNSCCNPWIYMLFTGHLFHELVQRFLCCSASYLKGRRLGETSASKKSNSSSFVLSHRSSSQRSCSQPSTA

Sequence of human esRAGE (Q15109 23-347 isoform Q15109-3 limits assumed): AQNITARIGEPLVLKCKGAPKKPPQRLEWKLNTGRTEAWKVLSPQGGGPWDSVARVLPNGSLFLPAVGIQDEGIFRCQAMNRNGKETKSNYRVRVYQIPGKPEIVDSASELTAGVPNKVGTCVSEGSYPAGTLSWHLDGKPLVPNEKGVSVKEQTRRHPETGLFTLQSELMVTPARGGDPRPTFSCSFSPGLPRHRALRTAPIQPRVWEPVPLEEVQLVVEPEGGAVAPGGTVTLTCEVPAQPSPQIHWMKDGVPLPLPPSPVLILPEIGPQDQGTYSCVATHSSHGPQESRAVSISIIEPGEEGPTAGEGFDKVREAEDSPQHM
Sequence of oxytocin (P01178 whole entry, looked up): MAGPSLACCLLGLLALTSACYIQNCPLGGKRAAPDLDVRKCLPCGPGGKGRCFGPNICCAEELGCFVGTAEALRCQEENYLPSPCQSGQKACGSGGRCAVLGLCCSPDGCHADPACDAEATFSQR
T1 sequence (Q15109 23-347 isoform Q15109-3): as the sequence (Q15109 23-347 isoform Q15109-3 limits assumed) above
Sequence of Oxytocin (synthetic) (P01178 whole entry, looked up): as the sequence (P01178 whole entry, looked up) above
Sequence of oxytocin receptor (high affinity form) (P30559 whole entry): as the sequence (P30559 whole entry) above

inhibition of oxytocin binding to soluble RAGE by RAGE ligand (human esRAGE): weakly or non-specifically inhibited
Compound: S100B: RAGE ligand S100B (Sigma-Aldrich)

inhibition of oxytocin binding to soluble RAGE by RAGE ligand (human esRAGE): weakly or non-specifically inhibited
Compound: amyloid β 1-42

Compound: [^13C,^15N]oxytocin
[13C,15N]oxytocin in CSF of Ager-/- male mice [1]: undetectable

CSF/blood fluorescent ([2]; Ager-/- Sham): 0.03456% and 0.01791% and 0.02565% | CSF/blood fluorescent ([2]; WT BCCAO): 0.02918% and 0.03954% and 0.02602%
Compound: O=C1OC2(c3ccc(O)cc3Oc3cc(O)ccc32)c2ccccc21 [fluorescein, sodium fluorescein]
CSF/blood fluorescent ([2]; Ager-/- BCCAO): 0.0316% and 0.02179% and 0.01832% and 0.02493% | CSF/blood fluorescent (relative fluorescence units, CSF value/serum value) ([2]; WT Sham, 200 μl of 6 mg/ml via retro-orbital venous sinus, 60 min): 0.03234% and 0.009373% and 0.03651% and 0.03497% and 0.03069% and 0.01619%

inhibition of oxytocin binding to soluble RAGE by RAGE ligand (human esRAGE): weakly or non-specifically inhibited
Compound: AGEs: glyceraldehyde-derived AGE-BSA, RAGE ligand

Compound: arginine-vasopressin
transport by RAGE in the in vitro BBB assay system [3]: did not transport | identification in material eluted from immobilised esRAGE (human serum) (soluble RAGE): did not identify

Kd [4]: 179 nM
Compound: Oxytocin (synthetic) (from UniProt P01178 20-28) (peptide)

Compound: oxytocin (from UniProt P01178)
Kd [5]: 1 nM | Kd (oxytocin receptor): 100 nM

inhibition of oxytocin binding to soluble RAGE by RAGE ligand (human esRAGE): weakly or non-specifically inhibited
Compound: HMGB1: high-mobility group box 1, RAGE ligand (Sigma-Aldrich)
